Experimental findings from patent US20090175866A1, “TREATMENT OF B-CELL MALIGNANCIES” (priority 2004, published 2009) are described below.

In assay [1] the target is FGFR3 (as measured by BIAcore, Table 1) (UniProt P22607). As to the kind of experiment: BIAcore. In general terms: SPR reads the build-up and loss of mass on a sensor chip optically.
For assay [2] the target is unchanged. As to the kind of experiment: BIAcore (receptor not given).
The target in assay [3] is FGFR3-G394D expressed on B9 cells, P22607. The assay can be described thus: cell-based or functional assay.
Chain of FGFR3-G394D expressed on B9 cells, P22607 (P22607 23-806, stated change not applied): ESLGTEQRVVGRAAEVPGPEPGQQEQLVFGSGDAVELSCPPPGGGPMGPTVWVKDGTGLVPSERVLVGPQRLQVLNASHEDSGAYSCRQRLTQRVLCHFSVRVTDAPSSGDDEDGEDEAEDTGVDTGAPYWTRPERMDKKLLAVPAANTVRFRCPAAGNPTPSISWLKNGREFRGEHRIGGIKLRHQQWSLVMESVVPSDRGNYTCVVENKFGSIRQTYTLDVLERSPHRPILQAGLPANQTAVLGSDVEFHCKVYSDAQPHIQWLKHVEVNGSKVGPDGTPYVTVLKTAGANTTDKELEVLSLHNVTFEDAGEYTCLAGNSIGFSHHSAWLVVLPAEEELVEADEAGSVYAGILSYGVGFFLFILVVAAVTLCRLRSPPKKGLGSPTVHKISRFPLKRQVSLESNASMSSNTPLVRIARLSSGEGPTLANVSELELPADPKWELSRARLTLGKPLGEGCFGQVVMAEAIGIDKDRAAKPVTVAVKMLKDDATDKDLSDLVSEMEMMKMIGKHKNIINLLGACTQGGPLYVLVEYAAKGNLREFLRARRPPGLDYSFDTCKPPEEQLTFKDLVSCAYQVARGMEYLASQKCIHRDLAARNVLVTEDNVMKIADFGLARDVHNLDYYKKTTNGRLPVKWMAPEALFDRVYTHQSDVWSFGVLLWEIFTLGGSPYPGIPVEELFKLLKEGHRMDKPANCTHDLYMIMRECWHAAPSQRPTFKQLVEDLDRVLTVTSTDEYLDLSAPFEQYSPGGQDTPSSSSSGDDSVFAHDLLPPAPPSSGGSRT

B1: PRO-029 (Fab, V domains shown)
VH: QVQLVQSGAEVKKPGASVKVSCKASGYTFTSYYMHWVRQAPGQGLEWMGWINPNSGGTNYAQKFQGRVTMTRDTSISTAYMELSSLRSEDTAVYYCARTWQYSYFYYLDGGYYFDIWGQGTLVTVSS
VL: DIVLTQSPATLSLSPGERATLSCRASQSVSSSYLAWYQQKPGQAPRLLIYGASSRATGVPARFSGSGSGTDFTLTISSLEPEDFATYYCQQTNNAPVTFGQGTKVEIKR
Take B1: the Kd (usually the equilibrium constant for the complex coming apart) in assay [1] was 6 nM. Moreover, the koff (as a rule, the first-order rate constant of dissociation) in assay [2] was 0.0014 s⁻¹.

B2: PRO-001 Fab (Fab, V domains shown)
VH: QVQLQQSGPGLVKPSQTLSLTCAISGDSVSSNSAAWNWIRQSPGRGLEWLGRTYYRSKWYNDYAVSVKSRITINPDTSKNQFSLQLNSVTPEDTAVYYCARSYYPDFDYWGQGTLVTVSS
VL: DIELTQPPSVSVAPGQTARISCSGDALGDKYASWYQQKPGQAPVLVIYDDSDRPSGIPERFSGSNSGNTATLTISGTQAEDEADYYCQSYDGPDLWVFGGGTKLTVLGQ
Take B2: the IC50 of FGF-stimulated growth of B9 cells expressing G394D-FGFR3 in assay [3] was 3 µg/mL.

B3: PRO-002 (Fab, V domains shown)
VH: QVQLVQSGAEVKKPGASVKVSCKASGYTFTSYYMHWVRQAPGQGLEWMGWINPNSGGTNYAQKFQGRVTMTRDTSISTAYMELSSLRSEDTAVYYCARDFLGYEFDYWGQGTLVTVSS
VL: DIELTQPPSVSVAPGQTARISCSGDALGDKYASWYQQKPGQAPVLVIYDDSDRPSGIPERFSGSNSGNTATLTISGTQAEDEADYYCQSYDYSADYVFGGGTKLTVLG
On to B3, for which the Kd in assay [1] was 37 nM. Also, in assay [2], the koff amounted to 0.02 s⁻¹.

B4: PRO-054 (Fab, V domains shown)
VH: QVQLVQSGAEVKKPGASVKVSCKASGYTFTSYYMHWVRQAPGQGLEWMGWINPNSGGTNYAQKFQGRVTMTRDTSISTAYMELSSLRSEDTAVYYCARNMAYTNYQYVNMPHFDYWGQGTLVTVSS
VL: DIELTQPPSVSVAPGQTARISCSGDALGDKYASWYQQKPGQAPVLVIYDDSDRPSGIPERFSGSNSGNTATLTISGTQAEDEADYYCQSYDYFKLVFGGGTKLTVLG
In assay [1], B4 registered a Kd of 3.7 nM. In assay [2], the koff was 0.002 s⁻¹.

B5: PRO-012 (Fab, V domains shown)
VH: QVQLKESGPALVKPTQTLTLTCTFSGFSLSTSGVGVGWIRQPPGKALEWLALIDWDDDKYYSTSLKTRLTISKDTSKNQVVLTMTNMDPVDTATYYCARYHSWYEMGYYGSTVGYMFDYWGQGTLVTVSS
VL: DIELTQPPSVSVAPGQTARISCSGDALGDKYASWYQQKPGQAPVLVIYDDSDRPSGIPERFSGSNSGNTATLTISGTQAEDEADYYCQSYDFDFAVFGGGTKLTVLG
In turn, B5 yielded a Kd in assay [1] of 14 nM. For the same molecule, the koff in assay [2] is 0.0023 s⁻¹.

B6: PRO-026 (Fab, V domains shown)
VH: QVQLVQSGAEVKKPGASVKVSCKASGYTFTSYYMHWVRQAPGQGLEWMGWINPNSGGTNYAQKFQGRVTMTRDTSISTAYMELSSLRSEDTAVYYCARGYWYAYFTYINYGYFDNWGQGTLVTVSS
VL: DIALTQPASVSGSPGQSITISCTGTSSDVGGYNYVSWYQQHPGKAPKLMIYDVSNRPSGVSNRFSGSKSGNTASLTISGLQAEDEADYYCQSYDNNSDVVFGGGTKLTVLG
Take B6: the Kd in assay [1] was found to be 4 nM. Besides, the off-rate (koff) in assay [2] is 0.0005 s⁻¹.

B7: PRO-055 (Fab, V domains shown)
VH: QVQLVQSGAEVKKPGASVKVSCKASGYTFTSYYMHWVRQAPGQGLEWMGWINPNSGGTNYAQKFQGRVTMTRDTSISTAYMELSSLRSEDTAVYYCARSMNSTMYWYLRRVLFDHWGQGTLVTVSS
VL: DIALTQPASVSGSPGQSITISCTGTSSDVGGYNYVSWYQQHPGKAPKLMIYDVSNRPSGVSNRFSGSKSGNTASLTISGLQAEDEADYYCQSYDMYNYIVFGGGTKLTVLG
In assay [1], B7 showed a Kd of 2.9 nM. The same molecule displayed an off-rate constant (koff) in assay [2] of 0.00074 s⁻¹.
